Measured values from the supplement of paper PMC9170038.

Tested on: K4 kissing-loop RNA reporter
Experiment: apparent KD of K4 kissing-loop reporter; higher = weaker reporter binding
Conditions: Eterna round: R107
Method: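 RNA-MaP round R107: designed RNA switches with theophylline, tryptophan, arginine or FMN aptamers are transcribed on-chip within common flanks. They are titrated with a labelled K4 kissing-loop RNA reporter in RNA-MaP buffer (100 mM Tris pH 7.5, 80 mM KCl, 4 mM MgCl2), without ligand or with the indicated ligand. Median apparent KD per design.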

[1] = input ligand: theophylline 20 uM
[2] = input ligand: tryptophan 2.4 mM
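Further: bound reporter read as fluorescence of individual clusters on recovered sequencing chips by microscopy, with normalized cluster intensities fitted with a binding model.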

Row | Sequence | apparent KD of K4 kissing-loop reporter (input ligand: FMN 200 uM) | apparent KD of K4 kissing-loop reporter (input ligand: arginine 13.2 mM) | apparent KD of K4 kissing-loop reporter (input ligand: none) | apparent KD of K4 kissing-loop reporter [1] | apparent KD of K4 kissing-loop reporter [2]
1 | GGCAGAGUGAUGUUCGCCCUUUACCUUGAUACCAGUUCAUCUCAAAACCCUUGGCAGCAAGUGUGUAAGAGCGGUAUUGGUCAAU [theeternabot_exclusion_KL_Theo_A_1] | 356 nM | 306 nM | 388 nM | 359 nM | 339 nM
2 | GGCAGUGAUGUUGCCAGUGGCAGAUUGGAAGGAGCGUGGUGAGACACAGGUAGGUCGCUAAUUGAAGUUGCUGUCACUAGAAUGC [whbob_Ex_Arginine_A_2t132] | 214 nM | 280 nM | 293 nM | 335 nM | 231 nM
3 | GGCAUGCGUAGAGUGAUGUUCUAAGAUGAUACCAGUGCGGAAACGCACCCUUGGCAGCAUCUGACUGGCAUGCCGGCGAAAGCCU | 871 nM | 811 nM | 1240 nM | 770 nM | 982 nM
4 | GGCCGCAAGGCGGGCCGGCCCACUCCGGAAGGAGCGCCCGCAAGGGCAGGUAGGUCGCCGGAGUGAUGUUCCGGUGGCCGGCCCG [#2 Exclusion - Arginine A Attempt #2 (Inspired by Omei)] | 140 nM | 136 nM | 133 nM | 93.8 nM | 130 nM
5 | GGCCGGAAGGCGAGCGCUCCCACUCCGGAAGGAGCGCCCGGAAGGGCAGGUAGGUCGCCGGAGUGAUGUUCCGGUGGAGGGCUCG [#2 Exclusion - Arginine A Attempt #19 (Inspired by Omei)] | 141 nM | 120 nM | 80.4 nM | 271 nM | 70.2 nM
6 | GGCCGGUUGAAAGGCCGGCCAGAAACCGAAGGAGCGCGAAGAAACGCAGGUAGGUCGCGGAAAACAUGACCAGUGAUGUUGGUCG | 152 nM | 173 nM | 154 nM | 152 nM | 144 nM
7 | GGCGAUGAGUGAUGUUCAAAGAAUAAUGAUACCAGCUGAUGUCGAAGCCCUUGGCAGCAUAGAUACACCAAGUGAUGGUAAUGCC [Default title] | 193 nM | 209 nM | 237 nM | 235 nM | 143 nM
8 | GGGAACUCUUACGAUACCAGCCGGAGUGAUGUUCCGUGCUUGGACGUAGUAACCCGCACCGGCCCUUGGCAGCGUGGAUCUUGUG [Esgeonin] | 80.6 nM | 65.5 nM | 78.1 nM | 73.2 nM | 83.5 nM
9 | GGGAAGAAGGCGGCCGCCACUGCAGAAGAGACAGAGAGGGUAGAAGAGGAGUGAUGUUCCAAGAACAGGACCGGGCCAAGAAGGG [whbob_SS_Tryp_B_t30] | 226 nM | 172 nM | 226 nM | 237 nM | 137 nM
10 | GGGAGCAAAGCUCCCGGAUGCUAUUACCAGGAGGAUAUCUGGAAACAGAGAAGGCCUAAGCCAGUGAUGUUGGUUUCGAGCAUCC | 184 nM | 257 nM | 278 nM | 305 nM | 274 nM
11 | GGGAGGAGUGGUGUUGAUUAAGAAGCGGAAGGAGCGCCGAAGAAGGCAGGUAGGUCGCCGAAAUAUAGUGAUGUUAUAUAAAGGG [ExArg.C] | 340 nM | 198 nM | 281 nM | 262 nM | 208 nM
12 | GGGAGUAGUGCGGCCGCCACUGAGAAAGAAGAAGAAUAUAGUGAUGUUAUAUAGGAAUAAAAGAAUAGGACCGGGCAUUAGAUUU [SSTRyptB.S] | 165 nM | 245 nM | 269 nM | 215 nM | 159 nM
13 | GGGAGUAGUGCGGCCGCCACUGUGAAAGAAGAAGAAUAUAGUGAUGUUAUAUAGGAAUUAAAGAAUAGGACCGGGCAUUAGAUUU [SSTRyptB.Q] | 248 nM | 198 nM | 260 nM | 311 nM | 184 nM
14 | GGGCAUCUGGCUGAUACCAGUGAUAAAGGGUAAGAGACAGGGAGUGAUGUUCCCUUUAGCCACCCUUGGCAGCAGUUUAAGUUUG [Exclusion Theophylline B GF 17] | 83.5 nM | 83.3 nM | 94.7 nM | 85.4 nM | 76.4 nM
15 | GGGCAUGUUAAAGGAUAUAGCAGGUGAUACAAGAAAGUGAGUGAUGUUUAUGUAGAUGAUGAUAUGUUAGAAGGUUAACAAAACC [abcdefghijklm] | 597 nM | 475 nM | 620 nM | 529 nM | 374 nM
16 | GGGCCGCGCGCGGCCGCCACUCAGUGAUGUUGGGUGAGCUUUGCUGUGCGUGCUGUUUCGUGACGGAGGACCGGGCGCGCGGCCU [BDazzled 2] | 129 nM | 93.6 nM | 121 nM | 113 nM | 215 nM
17 | GGGCGCGGCGCGGCCGCCACUGGGCCUGGGCGCUCGCUGAGUGAUGUUCGUCGGCGGCUGGGUCGUAGGACCGGGUGCCGGCUGG [BDazzled - #4 SS Tryptophan B] | 735 nM | 533 nM | 1320 nM | 627 nM | 269 nM
18 | GGGCGUGGCGCGGCCGCCACUGGGCCUGGGCGCUCGCUGAGUGAUGUUCGUCGGCGGUUGGGUCGUAGGACCGGGUGCUGGUUGG [BDazzled - #8 SS Tryptophan B] | 402 nM | 199 nM | 516 nM | 281 nM | 253 nM
19 | GGGCGUUACGGAGUGAUGUUCCGUAGCGAUACCAGCCAUUGCGAUGGCCCUUGGCAGCGCUAUAAGCAUAGAAUUGUAGCGCUUA [Theo A Ex t7b] | 109 nM | 94.1 nM | 108 nM | 102 nM | 105 nM
20 | GGGCUAUAGUGAUGUUAUUGUCUAAACGAUACCAGUUCACCCGUGAACCCUUGGCAGCGUGGUGUAACCUAUCCUCGUUGCACUG [theeternabot_sameState_KL_Theo_A_28] | 640 nM | 595 nM | 744 nM | 523 nM | 554 nM
21 | GGGUGGCAGGCGGCCGCCACUCUGAGGGUCCACAGUGAUGUUGUGGGCGCGUAAGCGUCUUCAUAGAGGACCGGGUUUGUUGUUC [Same State Tryptophan B GF 24] | 422 nM | 308 nM | 454 nM | 403 nM | 338 nM
22 | GGGUUUGCCGGAAGGAGCGCACUAUGGAGUGAUGUUCCAUGACCGCACAGCUUGCGGUCAGUGCAGGUAGGUCGCCGGUAACGUU [Enatbeve] | 237 nM | 181 nM | 180 nM | 201 nM | 194 nM

Row | Sequence | apparent KD of K4 kissing-loop reporter (input ligand: FMN 200 uM) | apparent KD of K4 kissing-loop reporter (input ligand: arginine 13.2 mM) | apparent KD of K4 kissing-loop reporter (input ligand: none) | apparent KD of K4 kissing-loop reporter [1] | apparent KD of K4 kissing-loop reporter [2]
23 | GGUACAGCGGAAGGAUAUCUGUCAUGGACGAUCGUAGCUUGAGCUCCCUGAGUGAUGUUUAGGAUGAGAGAAGGUCCACUCGUAU [theeternabot_exclusion_KL_FMN_B_2] | 673 nM | 358 nM | 591 nM | 626 nM | 450 nM
24 | GGUAGCAUGGCGGCCGCCACUAAUACUUCGUAGCCUGUAGCCGGCUUCGUAGAGUGAUGUUCUAUUAGGACCGGGCCAUGCUACC | 361 nM | 520 nM | 450 nM | 526 nM | 493 nM
25 | GGUAGCAUGGCGGCCGCCACUAGAUCAGUGAUGUUGAUCCCGCCGUCUUACGGCGAGUCAGAGGCUAGGACCGGGCCAUGCUACC | 601 nM | 318 nM | 490 nM | 590 nM | 963 nM
26 | GGUAGCAUGGCGGCCGCCACUAUAAAGAAUCCAAAGGAUUCUAGGUAGUGAUGUUACCAUAGCUAUAGGACCGGGCCAUGCUACC | 156 nM | 120 nM | 174 nM | 121 nM | 56.5 nM
27 | GGUAGCAUGGCGGCCGCCACUGUUCGUGUUGCUAGCAGAUUCCAGUGAUGUUGGAAGCCUAGGUACAGGACCGGGCCAUGCUACC | 105 nM | 115 nM | 131 nM | 102 nM | 103 nM
28 | GGUAGCAUGGCGGCCGCCACUUCAAUUGGAGUGAUGUUCCAAGGCAUCGCGAAAGCGAUGCCAGGAAGGACCGGGCCAUGCUACC | 271 nM | 224 nM | 306 nM | 222 nM | 112 nM
29 | GGUAGCAUGGCGGCCGCCACUUCGAAUAAGUGAUGUUUAUUUGACUGAGCACCCUAUGCCAUGUGAAGGACCGGGCCAUGCUACC | 147 nM | 138 nM | 157 nM | 208 nM | 200 nM
30 | GGUAUCCAGUACCAUUGCGUUAAAACAGAAGGAGCGAGUAUGGACUCAGGUAGGUCGCUGUUUAUAGUCGAGUGAUGUUCGAAUC [Same State Arginine A GF 15] | 237 nM | 280 nM | 281 nM | 316 nM | 222 nM
31 | GGUCCGGGCUCGGCCGCCACUCCCUCGUACCGCAAGGUAUGAUACCGAGUGAUGUUCGGUUGGAGGAGGACCGGGAGCCCGGACC [#2 Exclusion - Tryptophan B Attempt #9 (HarryS)] | 112 nM | 110 nM | 132 nM | 124 nM | 100 nM
32 | GGUCGGAGUGAUGUUCCGAGCUUCAGUCAUCGAGGACCGGUACGGCCGCCACUCGUCUACUAUGACGUAUCACCCUCCACGUGUU [theeternabot_sameState_KL_Trp_A_33] | 150 nM | 142 nM | 146 nM | 145 nM | 125 nM
33 | GGUGACAACCAGGAGUGAUGUAUAGAAUAGCGAGGACCGGUACGGCCGCCACUCGUGAAGAGAAAGGAGUGAUGUUCCGUAAUGG [Kazoo C3] | 129 nM | 126 nM | 165 nM | 74.2 nM | 62.8 nM
34 | GGUGACGGCCAGGAGUGAUGUAUAGAAUAGCGAGGACCGGUACGGCCGCCACUCGUGAAGAAAAGGGAGUGAUGUUCCGUAAUGU [Kazoo] | 87.8 nM | 122 nM | 75.3 nM | 126 nM | 49.5 nM
35 | GGUGCGGGCUCGGCCGCCACUCCCUCCUGCCGUAAGGUGGGAUACCGAGUGAUGUUCGGUUGGAGGAGGACCGGGAGCCCGUGCC [#2 Exclusion - Tryptophan B Attempt #16 (HarryS)] | 131 nM | 102 nM | 114 nM | 110 nM | 125 nM
36 | GGUGCUGGCCAGUGAUGUUGGCGAAUACUGAAGGAUAUGAUAGGCGUCAGAAGGUCAAGAGUAAUAUCUAGAAUGAAUAGUGAUA [theeternabot_sameState_KL_FMN_A_38] | 296 nM | 289 nM | 329 nM | 439 nM | 285 nM
37 | GGUGCUGUCUGUGCCGCCCUCCUCGUCCCUCGAGGACCGGUACGGCCGCCACUCGAGUGAUGUUCGGGUAGCGAUCCCUGCUAGC [Bdazzled - #18 Exc. Tryptophan A] | 275 nM | 194 nM | 246 nM | 229 nM | 256 nM
38 | GGUGUUGUUUGUGCCGCCUUCCUCGUUCCUCGAGGACCGGUACGGCCGCCACUCGAGUGAUGUUUGGGUAGCGAUCCCUGUUAGU [Bdazzled - #11 Exc. Tryptophan A] | 764 nM | 573 nM | 892 nM | 638 nM | 778 nM
39 | GGUGUUGUUUGUGCCGUCUUCCUCGUUCCUCGAGGACCGGUACGGCCGCCACUCGAGUGAUGUUUGGGUAGCGAUCCCUGUUAGU [Bdazzled - #10 Exc. Tryptophan A] | 695 nM | 541 nM | 647 nM | 602 nM | 582 nM
40 | GGUGUUGUUUGUGCCGUUUUCCUCGUUCCUCGAGGACCGGUACGGCCGCCACUCGAGUGAUGUUUGGGUAGCGAUCCCUGUUAGU [Bdazzled - #9 Exc. Tryptophan A] | 868 nM | 646 nM | 871 nM | 802 nM | 766 nM
41 | GGUUCCUCAGUGAUGUUGAGGUGACCUCGGCAGGAUAUAGGCAUUACUAGAAGGGCCAAAAGAACCCUGUCCAGCGACACAGGGA [Zalatiat] | 159 nM | 238 nM | 305 nM | 250 nM | 232 nM
42 | GGUUUAUAGGAGGAUACCAGUACAAAUAAAGUACAUUAAUAGUAGAGUGAUGUUCUAAAGUACCCUUGGCAGCUUAGAUUAAGUU [ExTheophylB.G] | 92.6 nM | 181 nM | 111 nM | 188 nM | 76.4 nM
43 | GUAAGAUGAGGAGGAGGAUGAAUUACUGAAGGAGCGCAUAUAAAUGCAGGUAGGUCGCGGUAAAGAAGUAUAGUGAUGUUAUAUA [#20 K4 Arginine A Same State] | 452 nM | 508 nM | 464 nM | 459 nM | 474 nM
